From patent US20220153874A1 (NEURIMMUNE, published 2022)
Numbering of substitutions follows the chain as printed. In names and notes the source's numbering stands. Ends that are not written are not given here.

Assays:
[1] = biological target: T1, (GA)8 repeats; assay: SPR, inset: Fab bound (RU) plotted against [Fab] from 0 to 20000 nM with a fitted saturation curve
T1 construct: also called poly-(GA)8; GA (e.g., poly(GA))
T1 peptide: GAGAGAGAGAGAGAGA

[2] = biological target: T2, synthesized dipeptide repeat protein (GA)15: H-CHHHHHH(GA)15-OH; assay: indirect ELISA, coated peptide
T2 construct: also called poly-GA DPR peptide; uncoupled (GA)15 peptide
T2 peptide: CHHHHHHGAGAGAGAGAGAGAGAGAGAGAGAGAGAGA
Procedure: In brief, dipeptide repeat proteins were synthesized and purified by Schafer-N(Copenhagen, Denmark): (GA)₁₅: H-CHHHHHH(GA)₁₅-OH (SEQ ID NO: 61); (GP)₁₅: H-C(GP)₁₅-OH (SEQ ID NO: 62); (GR)₁₅: H-C(GR)₁₅-OH (SEQ ID NO: 63); (PA)₁₅: H-C(PA)₁₅-OH (SEQ ID NO: 64); (PR)₁₅: H—C(PR)₁₅-OH (SEQ ID NO: 65). 96-well microplates (Corning Incorporated, Corning, USA) were coated with dipeptide repeat protein peptides at a concentration of either 5 μg/ml or 20 μg/ml in coating buffer (15 mM Na₂CO₃, 35 mM NaHCO₃, pH 9.42). Non-specific binding sites were blocked for 1 h at RT with PBS/0.1% Tween®-20 containing 2% BSA (Sigma-Aldrich, Buchs, Switzerland). […] Binding was determined by measurement of HRP activity in a standard colorimetric assay.
(§1) EC₅₀ values were estimated by non-linear regression using GraphPad Prism software (San Diego, USA).

[3] = biological target: T2, synthesized dipeptide repeat protein …; assay: indirect ELISA, coated uncoupled peptide
Procedure: (§2) In brief, poly-GA dipeptide repeat proteins were synthesized and purified by Schafer-N(Copenhagen, Denmark): (GA)₁₅: H-CHHHHHH(GA)₁₅-OH (SEQ ID NO: 61). Poly-GA DPR protein peptides were then conjugated via a bifunctional linker (SMCC) to bovine serum albumin (BSA). 96-well microplates (Corning Incorporated, Corning, USA) were coated with poly-GA BSA-coupled or uncoupled dipeptide repeat protein peptides at a concentration of 5 μg/ml in coating buffer (15 mM Na₂CO₃, 35 mM NaHCO₃, pH 9.42). Non-specific binding sites were blocked for 1 h at RT with PBS/0.1% Tween®-20 containing 2% BSA (Sigma-Aldrich, Buchs, Switzerland). […] Binding was determined by measurement of HRP activity in a standard colorimetric assay.
as §1

[4] = biological target: T3, BSA-coupled (GA)15 dipeptide repeat protein peptide (H-CHHHHHH(GA)15-OH conjugated via SMCC to bovine serum … (bovine, UniProt P02769 25-607, conjugated via a bifunctional linker (SMCC) to bovine serum albumin (BSA))); assay: indirect ELISA, coated BSA-coupled peptide
T3 construct: also called BSA-coupled peptide; BSA-conjugated poly-GA
Procedure: as §2, §1

[5] = biological target: T4, synthesized dipeptide repeat protein (GA)6: H-(GA)6HHHHHH-NH2; assay: indirect ELISA, peptide coated at 50 µg/ml
T4 peptide: H-GAGAGAGAGAGAHHHHHH-NH2
Excerpt: (§3) In brief, Dipeptide repeat protein peptides were synthesized and purified by Schafer-N(Copenhagen, Denmark): GA₂₀: H-(GA)₂₀HHHHHH-NH₂ (SEQ ID NO: 71); GA₁₀: H-(GA)₁₀HHHHHH-NH₂ (SEQ ID NO: 72); GA₆: H-(GA)₆HHHHHH-NH₂ (SEQ ID NO: 73); GA₅: H-(GA)₅HHHHHH-NH₂ (SEQ ID NO: 74); GA₄: H-(GA)₄HHHHHH-NH₂ (SEQ ID NO: 75); GA₃: H-(GA)₃HHHHHH-NH₂ (SEQ ID NO: 76); GA₂: H-(GA)₂HHHHHH-NH₂ (SEQ ID NO: 77). 96-well microplates (Corning Incorporated, Corning, USA) were coated with dipeptide repeat protein peptides at a concentration of 50 μg/ml in coating buffer (15 mM Na₂CO₃, 35 mM NaHCO₃, pH 9.42). Non-specific binding sites were blocked for 1 h at RT with PBS/0.1% Tween®-20 containing 2% BSA (Sigma-Aldrich, Buchs, Switzerland). […] Binding was determined by measurement of HRP activity in a standard colorimetric assay. EC₅₀ values were estimated by non-linear regression using GraphPad Prism software (San Diego, USA).
(§4) High affinity binding was detected for poly-GA DPRs harboring 10 (SEQ ID NO: 79) or 20 (GA)-repeats (SEQ ID NO: 82), reflected in an EC₅₀ in the subnanomolar range (Table 5, FIG. 6).

[6] = biological target: T5, synthesized dipeptide repeat protein (GA)20: H-(GA)20HHHHHH-NH2 (C-terminal amide (-NH2)); assay: indirect ELISA, peptide coated at 50 µg/ml
T5 peptide: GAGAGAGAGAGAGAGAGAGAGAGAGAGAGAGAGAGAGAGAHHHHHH
Excerpt: as §3, §4

[7] = biological target: T6, synthesized dipeptide repeat protein (GA)10: H-(GA)10HHHHHH-NH2 (C-terminal amide (-NH2)); assay: indirect ELISA, peptide coated at 50 µg/ml
T6 peptide: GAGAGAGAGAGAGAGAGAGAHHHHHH
Excerpt: as §3, §4

[8] = biological target: T2, synthesized dipeptide repeat protein …; assay: BLI (Octet RED96), peptide immobilised on AR2G sensor, IgG as analyte, 1:1 model
Procedure: Poly-GA dipeptide repeat protein peptides were synthesized and purified by Schafer-N (Copenhagen, Denmark): (GA)₁₅: H-CHHHHHH(GA)₁₅-OH (SEQ ID NO: 61). Pure, lyophilized (GA)₁₅ (SEQ ID NO: 66) was dissolved in DMSO (Sigma-Aldrich, Buchs, Switzerland) at a concentration of 10 mg/ml and stored at −20° C. In brief, bio-layer interferometry experiments were performed on Octet RED96 instrument (Pall ForteBio LLC, Fremont, USA). Octet amine-reactive (AR2G) biosensors were used for covalent immobilization of (GA)₁₅ (SEQ ID NO: 66) dipeptide repeat protein peptides. AR2G biosensors were activated with EDC (1-Ethyl-3-[3-dimethylaminopropyl] carbodiimide hydrochloride; 20 mM in water; Pall ForteBio LLC, Fremont, USA) and s-NHS (N-hydroxysulfosuccinimide; 10 mM in water; Pall ForteBio LLC, Fremont, USA) for 300 s, followed by loading of the biosensor surface with 5 μg/ml of (GA)₁₅ (SEQ ID NO: 66) peptides in 10 mM acetate buffer pH 6 (Pall ForteBio LLC, Fremont, USA) for 600 s. […] Antibody dissociation was evaluated in kinetics buffer for 800 s. All binding data were referenced by collecting data with a PBS only reference. Data analysis was performed by using the Octet system software (Pall ForteBio LLC, Fremont, USA) with simultaneous Kₐ/Kd global fitting with 1:1 interaction model. BLI sensorgrams were drawn with the Prism software from GraphPad (San Diego, USA) upon fitting.

[9] = biological target: T7, synthetic biotin-8xGA (also: biotin, position not given here); assay: SPR (Biacore T200), biotin-8xGA captured on Biotin CAPture chip, Fab as analyte, 1:1 model
T7 construct: also called synthetic 8×GA; poly-(GA)8 peptide
T7 peptide: GAGAGAGAGAGAGAGA
Procedure: Variant Fabs were assessed for binding to synthetic poly-GA by SPR, using a Biacore T200 instrument (GE Healthcare). Synthetic biotin-8xGA was captured on a Biotin CAPture chip (GE Healthcare) at […] from solutions at 5 ng/mL in SPR buffer (10 mM HEPES, pH 7.2, 150 mM NaCl, 3.4 mM EDTA, 0.05% BSA, 0.005% surfactant P20) using reagents and protocols provided by the manufacturer. A series of solutions of variant antibody Fab fragments at increasing concentrations of 1.23, 3.7, 11, 33, and 100 nM in SPR buffer were injected over the biotin-8xGA coated sensor chip for 4 min each at 30 μL/min followed by buffer wash, and the binding response relative to a reference sensor with no biotin-8xGA was recorded during injections and for 15 min after the final injection. Data were analyzed with Biacore T200 Evaluation Software v3.0 using a 1:1 binding model.

T3 sequence (P02769 25-607 limits assumed): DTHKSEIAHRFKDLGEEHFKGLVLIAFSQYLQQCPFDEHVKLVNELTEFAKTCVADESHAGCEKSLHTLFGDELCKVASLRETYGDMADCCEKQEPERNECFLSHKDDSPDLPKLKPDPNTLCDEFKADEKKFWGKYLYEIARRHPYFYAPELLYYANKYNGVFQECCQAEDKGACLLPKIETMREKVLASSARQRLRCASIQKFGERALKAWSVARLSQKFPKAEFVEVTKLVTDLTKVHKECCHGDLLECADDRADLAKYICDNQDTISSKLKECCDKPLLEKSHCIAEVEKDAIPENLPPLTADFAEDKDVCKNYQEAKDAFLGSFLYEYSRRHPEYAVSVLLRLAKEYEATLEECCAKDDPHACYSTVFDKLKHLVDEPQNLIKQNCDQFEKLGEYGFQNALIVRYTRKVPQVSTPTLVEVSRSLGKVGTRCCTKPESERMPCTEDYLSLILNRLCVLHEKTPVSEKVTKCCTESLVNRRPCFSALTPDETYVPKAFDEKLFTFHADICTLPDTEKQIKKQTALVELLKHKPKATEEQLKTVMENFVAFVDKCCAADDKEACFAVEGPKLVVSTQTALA

B1: Fab fragment of DPR Ab-1 (Fab, V domains shown)
VH: QVQLVESGGGVVQPGRSLRLSCAASGFTFSNHAMHWVRQAPGKGLEWVAVISYDGENTYYADSIEGRFTISRDNFKNTLFLQMYSLTADDTAMYFCARGGRRGHFTSYYLDYWGQGTLVTVSS
VL: DIQMTQSPSSLSASVGDRVTITCRASQNIDKYLNWYQQIPGKAPKLLIYAASSLHSGVPSRFSGSGSGTDFSLTISSLQPEDFAIYYCQQSYSSFRTFGQGTKLEIK
notes: also called DPR Ab-1 Fab
Kd [1]: 4.6 µM

B2: NI-308.5J10 recombinant human-derived monoclonal antibody (human IgG1, kappa) (antibody, V domains shown)
VH: SETLSLTYTVLGGSVSDYYWSCIRQPAGKGLEWIGRTYTNGKTTYTYNPSLESRLSLSIDTSMNQFSLKLTSVTAADTAVYYCARWGAVTGDYYYGMDVWGPGTLVTVSS
VL: EIVLTQSPLSLSVTPGEPASISCRSPRSLLHTNGYTYLDWYLQRPGQSPQLLIFLASNRASGVPDRFSGSGSGTNFTLRISGVEADDVGVYYCMQGLQPSWTFGQGTKVEIKR
notes: Full hIgG1 heavy chain (plasmid SDD151) and kappa light chain (plasmid SDD152); also called 5J10 hIgG1
EC50 [2]: 0.00026 µM | EC50 [3]: 0.00023 µM | EC50 [4]: 0.00016 µM | EC50 [5]: 0.0138 µM | EC50 [6]: 0.00029 µM | EC50 [7]: 0.0003 µM | Kd [8]: 0.00015 µM | koff [8]: 2.4e-05 s⁻¹ | kon [8]: 163000 M⁻¹ s⁻¹

B3: NI-308.5J10 variant WT-Fab-6His / N75D light chain (Fab, V domains shown)
VH: B2 VH
VL: B2 VL with N75D
notes: Plasmids SDD178 and SDD177; also called LC N75D Fab; 5J10-LC N75D Fab
Kd [9]: 0.026 µM | koff [9]: 0.0059 s⁻¹ | kon [9]: 230000 M⁻¹ s⁻¹

B4: NI-308.5J10 WT Fab-6His (WT-Fab-6His / WT light chain) (Fab, V domains shown)
VH: B2 VH
VL: B2 VL
notes: The heavy chain is VH-CH1 with a C-terminal hexahistidine tag; also called 5J10 Fab
Kd [9]: 0.028 µM | koff [9]: 0.0078 s⁻¹ | kon [9]: 270000 M⁻¹ s⁻¹

B5: NI-308.5J10 variant G55S-Fab-6His / N75D light chain (Fab, V domains shown)
VH: B2 VH with G41S
VL: B2 VL with N75D
notes: Plasmids SDD181 and SDD177; also called HC G55S/LC N75D Fab; 5J10-LC N75D, HC G55S Fab
Kd [9]: 0.024 µM | koff [9]: 0.0044 s⁻¹ | kon [9]: 180000 M⁻¹ s⁻¹

B6: NI-308.5J10 variant G55T-Fab-6His / N75D light chain (Fab, V domains shown)
VH: B2 VH with G41T
VL: B2 VL with N75D
notes: Plasmids SDD182 and SDD177; also called HC G55T/LC N75D Fab; 5J10-LC N75D, HC G55T Fab
Kd [9]: 0.022 µM | koff [9]: 0.0044 s⁻¹ | kon [9]: 200000 M⁻¹ s⁻¹

B7: NI-308.5J10 variant N54S-Fab-6His / N75D light chain (Fab, V domains shown)
VH: B2 VH with N40S
VL: B2 VL with N75D
notes: Plasmids SDD179 and SDD177; also called HC N54S/LC N75D Fab; 5J10-LC N75D, HC N54S Fab
Kd [9]: 0.021 µM | koff [9]: 0.006 s⁻¹ | kon [9]: 290000 M⁻¹ s⁻¹

B8: NI-308.5J10 variant N54T-Fab-6His / N75D light chain (Fab, V domains shown)
VH: B2 VH with N40T
VL: B2 VL with N75D
notes: Plasmids SDD180 and SDD177; also called HC N54T/LC N75D Fab; 5J10-LC N75D, HC N54T Fab
Kd [9]: 0.03 µM | koff [9]: 0.0076 s⁻¹ | kon [9]: 260000 M⁻¹ s⁻¹
